Measured values: JP2018058812A

Target: バキュロウイルスを用いて作製したFlagタグ融合インフルエンザウィルスH1N1由来のリコンビナントヌクレオプロテイン(NP)タンパク質 (influenza A virus H1N1)

B1: 配列番号:08により表されるアミノ酸配列からなるVHH抗体 (VHH)
VHH: QVQLVESGGGLVQAGGSLRLSCAASRTIFNPNVMGWYRQAPGKQRELVADISLSGSTNYADSVKGRFTISRDNAKNTMYLQMNSLKPEDTAVYYCNTNAISGAPGRYWGQGTQVTVSS
B1 was tested, and the Kd was 0.236 nM.
